Data published in patent publication US20220185871A1.

Molecular target: Man9-V3 glycopeptide
Assay: BLI (Octet Red96), biotinylated Man9-V3 on streptavidin sensors, antibody in solution, bivalent avidity model

Substance: DH270.6 (antibody)
- Kd: 188 nM

Substance: DH270.1 (antibody)
- Kd: 331 nM
